The source of these data is patent US20200405868A1, “GEL-FORMING POLYPEPTIDES” (priority 2018, published 2020).

Like-named read-outs stand apart in the source and are kept apart here. Where no end group is shown, it is not given here. The star is where a group is joined. Palmitoyl = CCCCCCCCCCCCCCCC(=O)* Some results are limits rather than exact numbers.

The target of data set [1] is melanocortin receptor 1 (MC1R) (Homo sapiens, UniProt Q01726). The data set is described as follows: MC1R cAMP assay (Discoverx), agonistic. Type of data set: cell-based. The procedure:
The agonistic activities toward MC1R, MC4R, CRHR2, PTHR1, and OPRK1 were assyed with an MC1R cAMP assay, an MC4R cAMP assay, a CRHR2 cAMP assay, a PTHR1 cAMP assay and an OPRK1 cAMP assay from Discoverx Inc. (Fremont, Calif.), respectively. The antagonistic activities toward bradykinin receptor 2 (BDKRB2) and GnRH receptor (GnRHR or LHRHR) were assayed with a BDKRB2 arrestin assay and a GnRHR calcium flux assay from Discoverx, respectively.
For the analysis of Gs-coupled cAMP production, cAMP Hunter cell lines were expanded from freezer stocks, and cells were seeded in a total volume of 20 μL into white walled, 384-well microplates and incubated at 37 C for the appropriate time prior to testing. The cAMP modulation was determined using the DiscoverX HitHunter cAMP XS+ assay. For agonistic activity determination, cells were incubated with sample to induce response. Media was aspirated from cells and replaced with 15 μL 2:1 HBSS/10 mM Hepes: cAMP XS+ Ab reagent. Intermediate dilution of sample stocks was performed to generate 4× sample in assay buffer, and 5 μL of 4× sample was added to cells and incubated at 37 C or room temperature for 30 or 60 minutes. Vehicle concentration was 1%. The compound activity was analyzed using a CBIS data analysis suite (ChemInnovation, CA). For Gs-coupled agonistic assays, percentage activity is calculated using the following formula: % Activity=100%×(mean RLU of test sample−mean RLU of vehicle control)/(mean RLU of MAX control−mean RLU of vehicle control).
Background: Cyclic AMP is a second messenger, typically raised through Gs and lowered through Gi signalling.

A short description of data set [2]: Compound gel-forming ability in water (visual inspection, tube tapping assay, tilted tube assay).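 As to all read-outs here: peptides mixed with de-ionized water at about 22-25 °C, judged after 20 min by eye plus tube tapping (10 taps, moves counted) and 90° tilt mobility.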 Type of data set: physicochemical. Conditions: for gel formation at 11% w/w: 11% w/w in water; for gel formation at 20% w/w: 20% w/w in water; for Physical property at 11% w/w: 11% w/w in aqueous solution, room temperature; for gel formation in aqueous solution, 11% / gel formation in aqueous solution, 20% / gel formation in aqueous solution, 6%: Table 3; for gel formation in aqueous solution, 11% / propensity to form gels, wild-type counterparts, 11% / propensity to form gels, chimeric or mutated polypeptides, 11%: 11% w/w; for gel formation in aqueous solution, 20% / propensity to form gels, wild-type counterparts, 20%: 20% w/w; for propensity to form gels, wild-type counterparts, 11% / propensity to form gels, wild-type counterparts, 20% / propensity to form gels, wild-type counterparts, 6% / propensity to form gels, chimeric or mutated polypeptides, 11%: Table 5; for gel formation in aqueous solution, 6% / propensity to form gels, wild-type counterparts, 6%: 6% w/w; for gel formation at the selected concentration: selected concentration (i.e., at 30%, 20%, 11%, or 6% w/w); for gel formation at 6% w/w: 6% w/w in water.
Method: Determination of Compound Gel-forming Ability in Water: To determine the solubility of polypeptides at room temperature, 1, 2, 3, 4, 5, 20, or 100 mg of a selected peptide is weighed and deposited into a clear plastic or glass vial and an aliquot of de-ionized water was then added to the vial. The procedure takes place in a room which is maintained at approximately 22-25° C. […] Insoluble peptides sample retained the particles or paste-like characteristics after 20 min of reaction. In addition to visual inspection, we performed a tube tapping assay and a tilted tube assay to differentiate the gelling status of peptide solutions.
To determine the solubility of polypeptides at room temperature, 1, 2, 3, 4, 5, 20, or 100 mg of a selected peptide is weighed and deposited into a clear plastic vial and an aliquot of de-ionized water was then added to the vial. The procedure takes place in a room which is maintained at approximately 22-25° C. Polypeptide sample which is considered soluble dissolves instantly in water and stays as a clear solution without obvious macroscopic change in viscosity at 20 min after mixing with water. […] If macroscopic particles of peptides remain in the solution at 20 min after mixing with water, the peptide is considered insoluble or precipitated at the given concentration. In this case, the quality of peptides is further judged by two other criteria: (1) mobility following a tapping of the tube (tube tapping assay) and (2) mobility flowing tilting the tube by 900 (tilted tube assay). In the first assay, the tube is tapped with the finger for 10 times, and the number of times that the body of the solution changes position is recorded. An aqueous solution such as water will have a score of 9 or 10 in this assay; meaning that the body of the liquid moves every time when one taps the tube. […] Those with moderate viscosity form liquid gel that changes the conformation slowly when the container tube is tapped with a finger or tilted. […] If macroscopic change in the position of the body of gel was observed 5-9 time out of 10 separate tapping tests, the gel is considered a liquid gel. The high viscosity of a liquid gel is further confirmed using the tilted tube assay. […] If the liquid or gel body takes more than 15 seconds to flow to the bottom of the tilted tube, the resulting aqueous mass is considered a liquid gel.
To allow systematic analysis of the gel-forming ability, the assay was first conducted at a peptide concentration of 11% w/w in aqueous solution. The peptides analyzed included functional regulators of cell surface receptors, enzymes, complement factors, antimicrobial peptides, immunomodulators, therapeutic peptides, cell-penetrating peptide, antigens, matrikines, and analogs of CGRP, adrenomedullin and adenomedullin 2 (or intermedin).

Sequence of melanocortin receptor 1 (MC1R) (Q01726 whole entry): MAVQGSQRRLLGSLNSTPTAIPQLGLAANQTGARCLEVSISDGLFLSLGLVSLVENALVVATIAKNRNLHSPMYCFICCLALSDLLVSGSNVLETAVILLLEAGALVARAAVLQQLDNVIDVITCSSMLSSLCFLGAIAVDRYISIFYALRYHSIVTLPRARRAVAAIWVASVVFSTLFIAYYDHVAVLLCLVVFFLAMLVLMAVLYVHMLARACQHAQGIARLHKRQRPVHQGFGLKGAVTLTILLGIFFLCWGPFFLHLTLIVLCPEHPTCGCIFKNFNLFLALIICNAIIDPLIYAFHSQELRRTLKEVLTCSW

`CCCCCCCCCCCCCCCC(=O)N[C@@H](Cc1c[nH]cn1)C(=O)N[C@@H](CO)C(=O)N[C@@H](Cc1ccc(O)cc1)C(=O)N[C@@H](CO)C(=O)N[C@@H](CCCC)C(=O)N[C@@H](CCC(=O)O)C(=O)N[C@@H](Cc1c[nH]cn1)C(=O)N[C@H](Cc1ccccc1)C(=O)N[C@@H](CCCNC(=N)N)C(=O)N[C@@H](Cc1c[nH]c2ccccc12)C(=O)NCC(=O)N[C@@H](CCCCN)C(=O)N1CCC[C@H]1C(=O)N[C@H](C(N)=O)C(C)C` [SEQ ID NO:224, Pal-HSYS-Nle-EH-(D-Phe)-RWGKPV-NH2]: in data set [1], the 50% effective concentration (EC50) result is given as “subnanomolar” and the “Max Activity % of positive control” value is 120 % of positive control. In addition, the EC50 in data set [1] (read-out: EC50) was less than 50 pM.
As to “SLRRSSCFGGRMDRIGAQSGLGCNSFRY-NH2 [SEQ ID NO:41, reference compound]”, in data set [2], the “gel formation at 11% w/w” value was “does not form gel”; the “gel formation at 20% w/w” value is on record as “does not form gel”; the “gel formation in aqueous solution, 11%” value is on record as “AS/IS (AS/IS for aqueous solution or insoluble)”; the “gel formation in aqueous solution, 20%” value was “AS/IS (AS/IS for aqueous solution or insoluble)”. Moreover, in data set [2], the “propensity to form gels, wild-type counterparts, 11%” value is “AS/IS” and the “propensity to form gels, wild-type counterparts, 20%” value (from here on “propensity to form gels … 20%”) is given as “AS/IS”. For the same compound, the “Physical property at 11% w/w” value in data set [2] (Table 1) is listed as “AS/IS”.
“VKVKVKVKV(D-Pro)PTKVKVKVKV-miniPEG-RPKPQQFFGLM-NH2 [SEQ ID NO:286]”: in data set [2], the “gel formation in aqueous solution, 6%” value is “AS/IS (AS/IS for aqueous solution or insoluble)” and the “gel formation in aqueous solution, 11%” value is reported as “AS/IS (AS/IS for aqueous solution or insoluble)”.
In the case of “IVLSLDVPIGLLQILLEQARARAAREQATTNARILARVGHC-NH2 [SEQ ID NO:31, reference compound]”, in data set [2], the “gel formation at 11% w/w” value is listed as “does not form gel”; the “gel formation at 20% w/w” value is recorded as “does not form gel”; the “gel formation in aqueous solution, 11%” value is “AS/IS (AS/IS for aqueous solution or insoluble)”; the “gel formation in aqueous solution, 20%” value is given as “AS/IS (AS/IS for aqueous solution or insoluble)”. Also, in data set [2], the “propensity to form gels, wild-type counterparts, 11%” value is recorded as “AS/IS”; the “propensity to form gels … 20%” value is on record as “AS/IS”; the “gel formation at the selected concentration” value is given as “only form aqueous solution or are insoluble”. Also, the “Physical property at 11% w/w” value in data set [2] (Table 1) is recorded as “AS/IS”.
“SVSEIQLMHNLGKHLNSMERVEWLRKKLQDVHNF [SEQ ID NO:25, reference compound]”: in data set [2], the “gel formation at 6% w/w” value is on record as “does not form gel”; the “gel formation at 11% w/w” value is recorded as “does not form gel”; the “gel formation in aqueous solution, 6%” value is reported as “AS/IS (AS/IS for aqueous solution or insoluble)”; the “gel formation in aqueous solution, 11%” value was “AS/IS (AS/IS for aqueous solution or insoluble)”. For the same compound, in data set [2], the “propensity to form gels, wild-type counterparts, 6%” value (“propensity to form gels … 6%” below) was “AS/IS” and the “propensity to form gels, wild-type counterparts, 11%” value is on record as “AS/IS”. For the same compound, the “Physical property at 11% w/w” value in data set [2] (Table 1) is “AS/IS”.
In the case of “GRKKRRQRRRPQ [SEQ ID NO:36, reference compound]”, in data set [2], the “gel formation at 11% w/w” value is recorded as “cannot form gel”; the “gel formation at 20% w/w” value is “cannot form gel”; the “gel formation in aqueous solution, 11%” value is given as “AS/IS (AS/IS for aqueous solution or insoluble)”; the “gel formation in aqueous solution, 20%” value was “AS/IS (AS/IS for aqueous solution or insoluble)”. Moreover, in data set [2], the “propensity to form gels, wild-type counterparts, 11%” value is “AS/IS”; the “propensity to form gels … 20%” value is recorded as “AS/IS”; the “gel formation at the selected concentration” value is “only form aqueous solution or are insoluble”. Also, in data set [2] (Table 1), the “Physical property at 11% w/w” value was “AS/IS”.
As to “(Glp)RPRLSHKGP(Nle)PF-NH2 (pyroGlu; Nle; C-terminal amide) [SEQ ID NO:18, reference compound]”, in data set [2], the “gel formation at 6% w/w” value is given as “does not form gel”; the “gel formation at 11% w/w” value is listed as “does not form gel”; the “gel formation at 20% w/w” value is recorded as “does not form gel”; the “gel formation in aqueous solution, 6%” value is “AS/IS (AS/IS for aqueous solution or insoluble)”. Further, in data set [2], the “gel formation in aqueous solution, 11%” value is listed as “AS/IS (AS/IS for aqueous solution or insoluble)”; the “gel formation in aqueous solution, 20%” value is listed as “AS/IS (AS/IS for aqueous solution or insoluble)”; the “propensity to form gels … 6%” value is reported as “AS/IS”; the “propensity to form gels, wild-type counterparts, 11%” value is listed as “AS/IS”. For the same compound, in data set [2], the “propensity to form gels … 20%” value is on record as “AS/IS” and the “gel formation at the selected concentration” value is recorded as “only form aqueous solution or are insoluble”. In addition, in data set [2] (Table 1), the “Physical property at 11% w/w” value is reported as “AS/IS”.
Regarding “EAYKAAEKAYAAKEAAKEAAKAKAEKKAAYAKAKAAKYEKKAKKAAAEYKKK [SEQ ID NO:42, reference compound]”, in data set [2], the “gel formation at 11% w/w” value is “does not form gel”; the “gel formation at 20% w/w” value is “does not form gel”; the “gel formation in aqueous solution, 11%” value is “AS/IS (AS/IS for aqueous solution or insoluble)”; the “gel formation in aqueous solution, 20%” value is on record as “AS/IS (AS/IS for aqueous solution or insoluble)”. In data set [2], the “propensity to form gels, wild-type counterparts, 11%” value is on record as “AS/IS” and the “propensity to form gels … 20%” value is “AS/IS”. Besides, the “Physical property at 11% w/w” value in data set [2] (Table 1) is on record as “AS/IS”.
For enfuvirtide, the “Physical property at 11% w/w” value in data set [2] (Table 1) is “AS/IS”.
Take “RPKPQQFF-Sar-L-Met-(O2)-NH2 [SEQ ID NO:69, reference compound]”: in data set [2], the “gel formation in aqueous solution, 6%” value is on record as “AS/IS (AS/IS for aqueous solution or insoluble)”; the “gel formation in aqueous solution, 11%” value was “AS/IS (AS/IS for aqueous solution or insoluble)”; the “gel formation in aqueous solution, 20%” value is “AS/IS (AS/IS for aqueous solution or insoluble)”; the “propensity to form gels … 6%” value is on record as “AS/IS”. Further, in data set [2], the “propensity to form gels, wild-type counterparts, 11%” value is “AS/IS” and the “propensity to form gels … 20%” value is given as “AS/IS”.
“Pal-VQKLAHQIYQFTDKDVAPRSKISPQGY-NH2 (Palmitoyl-VQKLAHQIYQFTDKDVAPRSKISPQGY-NH2; SMILES CCCCCCCCCCCCCCCC(=O)N[C@H](C(=O)N[C@@H](CCC(N)=O)C(=O)N[C@@H](CCCCN)C(=O)N[C@@H](CC(C)C)C(=O)N[C@@H](C)C(=O)N[C@@H](Cc1c[nH]cn1)C(=O)N[C@@H](CCC(N)=O)C(=O)N[C@H](C(=O)N[C@@H](Cc1ccc(O)cc1)C(=O)N[C@@H](CCC(N)=O)C(=O)N[C@@H](Cc1ccccc1)C(=O)N[C@H](C(=O)N[C@@H](CC(=O)O)C(=O)N[C@@H](CCCCN)C(=O)N[C@@H](CC(=O)O)C(=O)N[C@H](C(=O)N[C@@H](C)C(=O)N1CCC[C@H]1C(=O)N[C@@H](CCCNC(=N)N)C(=O)N[C@@H](CO)C(=O)N[C@@H](CCCCN)C(=O)N[C@H](C(=O)N[C@@H](CO)C(=O)N1CCC[C@H]1C(=O)N[C@@H](CCC(N)=O)C(=O)NCC(=O)N[C@@H](Cc1ccc(O)cc1)C(N)=O)[C@@H](C)CC)C(C)C)[C@@H](C)O)[C@@H](C)CC)C(C)C) [SEQ ID NO:102]”: the “Physical property at 11% w/w” value in data set [2] (Table 2) was “AS/IS (AS/IS for aqueous solution or insoluble)”.
In the case of “YRSRKYSSWY-NH2 [SEQ ID NO:46, reference compound]”, the “Physical property at 11% w/w” value in data set [2] (Table 1) is recorded as “AS/IS”. Further, in data set [2], the “gel formation in aqueous solution, 11%” value was “AS/IS (AS/IS for aqueous solution or insoluble)” and the “propensity to form gels, wild-type counterparts, 11%” value is recorded as “AS/IS”.
“Pal-HSYSLDVPIGLLQILLEQARARAAREQATTNARILARVGHC-NH2 [SEQ ID NO:265]”: in data set [2], the “gel formation at 20% w/w” value is on record as “semisolid or liquid gel”; the “gel formation in aqueous solution, 11%” value was “AS/IS (AS/IS for aqueous solution or insoluble)”; the “propensity to form gels, chimeric or mutated polypeptides, 11%” value was “AS/IS”.
“Pal-KVQKLSAPVDPSSPHSY-miniPEG-CSNLSTCVLGKLSQELHKLQTYPRTNTGSGTP-NH2 [SEQ ID NO:217]”: in data set [2], the “gel formation at 6% w/w” value is given as “liquid gel”; the “gel formation at 11% w/w” value is “semisolid gel”; the “gel formation in aqueous solution, 11%” value is recorded as “SS (SS for semisolid gel)”; the “propensity to form gels, chimeric or mutated polypeptides, 11%” value was “SS (An ability to form semisolid gel is represented by an SS)”.
Consider “Ac-EEMQRR-NH2 [SEQ ID NO:47, reference compound]”, for which the “Physical property at 11% w/w” value in data set [2] (Table 1) was “AS/IS”. In data set [2], the “gel formation in aqueous solution, 11%” value was “AS/IS (AS/IS for aqueous solution or insoluble)” and the “propensity to form gels, wild-type counterparts, 11%” value was “AS/IS”.
In the case of “RPKPQQFFGLM-NH2 [SEQ ID NO:23, reference compound]”, in data set [2], the “gel formation at 11% w/w” value is “semisolid gel”; the “gel formation in aqueous solution, 11%” value is “AS/IS (AS/IS for aqueous solution or insoluble)”; the “propensity to form gels, wild-type counterparts, 11%” value is “AS/IS”. Further, the “Physical property at 11% w/w” value in data set [2] (Table 1) is listed as “AS/IS”.

For orientation: EC50 means the concentration needed to bring the measured effect to its halfway point.
